According to patent US20150073033:

Tests used:
[1] = molecular target: purified GST-β-catenin (unphosphorylated) (UniProt P35222)
[2] = test system: purified recombinant His-tagged WT histone H3
[3] = molecular target: purified recombinant GST-Bub3 (wild type) (UniProt O43684)
purified recombinant GST-Bub3 (wild type), sequence (O43684 whole entry): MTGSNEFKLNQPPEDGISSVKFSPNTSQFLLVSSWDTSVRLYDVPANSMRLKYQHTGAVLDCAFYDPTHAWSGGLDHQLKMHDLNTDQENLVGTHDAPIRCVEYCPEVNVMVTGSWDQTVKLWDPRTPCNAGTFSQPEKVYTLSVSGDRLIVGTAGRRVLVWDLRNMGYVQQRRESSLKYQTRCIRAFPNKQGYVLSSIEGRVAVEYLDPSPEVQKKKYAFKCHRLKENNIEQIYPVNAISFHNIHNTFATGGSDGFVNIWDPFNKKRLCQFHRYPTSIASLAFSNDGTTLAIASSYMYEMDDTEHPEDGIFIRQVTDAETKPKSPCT

purified GST-β-catenin (unphosphorylated), sequence (P35222 whole entry): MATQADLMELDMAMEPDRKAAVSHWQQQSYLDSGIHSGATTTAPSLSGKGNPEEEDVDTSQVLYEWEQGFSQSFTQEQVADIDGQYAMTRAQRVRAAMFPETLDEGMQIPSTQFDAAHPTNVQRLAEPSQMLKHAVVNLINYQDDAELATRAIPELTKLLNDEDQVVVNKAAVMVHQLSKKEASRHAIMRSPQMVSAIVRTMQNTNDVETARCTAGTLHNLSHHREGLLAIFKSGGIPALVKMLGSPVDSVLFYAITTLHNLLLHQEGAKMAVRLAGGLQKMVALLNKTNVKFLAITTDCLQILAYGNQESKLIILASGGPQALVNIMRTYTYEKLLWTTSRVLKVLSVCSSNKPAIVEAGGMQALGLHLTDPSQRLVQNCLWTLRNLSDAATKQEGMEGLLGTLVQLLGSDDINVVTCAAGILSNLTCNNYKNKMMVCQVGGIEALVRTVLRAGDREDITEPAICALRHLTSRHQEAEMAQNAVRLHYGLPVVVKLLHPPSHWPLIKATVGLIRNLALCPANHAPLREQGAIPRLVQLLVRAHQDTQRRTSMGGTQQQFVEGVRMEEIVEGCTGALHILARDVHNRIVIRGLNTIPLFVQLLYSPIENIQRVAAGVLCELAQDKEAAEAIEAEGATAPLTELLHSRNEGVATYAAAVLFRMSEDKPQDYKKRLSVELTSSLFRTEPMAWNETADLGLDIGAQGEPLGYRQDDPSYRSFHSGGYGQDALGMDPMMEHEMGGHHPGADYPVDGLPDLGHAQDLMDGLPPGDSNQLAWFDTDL

purified active c-Src
in vitro protein kinase assay (Tyr and Y333 phosphorylation by immunoblot) [1]: active c-Src was able to phosphorylate WT β-catenin

purified recombinant His-PKM2 (wild type)
in vitro phosphorylation with PEP (anti-phospho-Thr and phospho-H3-T11 immunoblot) [2]: WT PKM2, but not PKM2 K367M kinase-dead mutant (Yang et al., 2011) or PKM1, phosphorylated WT histone H3 but not H3-T11A
in vitro protein kinase assay with PEP (anti-phospho-Tyr immunoblot) [3]: PKM2, but not PKM2 K367M or PKM1, phosphorylated Bub3
